According to patent publication US9029508 (dated 2015):

T1: VEGF (human, UniProt P15692)
T1 chain: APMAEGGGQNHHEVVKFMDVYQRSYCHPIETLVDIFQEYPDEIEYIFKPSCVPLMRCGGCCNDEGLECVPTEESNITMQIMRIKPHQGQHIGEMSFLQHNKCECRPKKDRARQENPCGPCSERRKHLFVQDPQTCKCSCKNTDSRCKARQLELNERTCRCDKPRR

B1: DVD026 HGF arm (antibody, V domains shown)
VH: QVQLVESGGGLVKPGGSLRLSCAASGFTFSDYYMSWIRQAPGKGLEWVSYISSSGSTIYYADSVKGRFTISRDNAKNSLYLQMNSLRAEDTAVYYCARDEYNSGWYVLFDYWGQGTLVTVSS
VL: DIQMTQSPSSVSASVGDRVTITCRASQGISSWLAWYQQKPGKAPNLLIYEASSLQSGVPSRFGGSGSGTDFTLTISSLQPEDFATYYCQQANGFPWTFGQGTKVEIKR
modifications: DVD-Ig outer
B2: DVD046 HGF arm (antibody, V domains shown)
VH: B1 VH
VL: B1 VL
modifications: DVD-Ig outer
B3: DVD491 VEGF arm (antibody, V domains shown)
VH: EVQLVESGGGLVQPGGSLRLSCAASGFTINASWIHWVRQAPGKGLEWVGAIYPYSGYTNYADSVKGRFTISADTSKNTAYLQMNSLRAEDTAVYYCARWGHSTSPWAMDYWGQGTLVTVSS
VL: DIQMTQSPSSLSASVGDRVTITCRASQVIRRSLAWYQQKPGKAPKLLIYAASNLASGVPSRFSGSGSGTDFTLTISSLQPEDFATYYCQQSNTSPLTFGQGTKVEIKR
B4: DVD515 VEGF arm (antibody, V domains shown)
VH: B3 VH
VL: B3 VL
B5: DVD528 VEGF arm (antibody, V domains shown)
VH: B3 VH
VL: B3 VL
B6: DVD527 VEGF arm (antibody, V domains shown)
VH: B3 VH
VL: B3 VL
B7: DVD467 VEGF arm (antibody, V domains shown)
VH: B3 VH
VL: B3 VL
B8: DVD486 VEGF arm (antibody, V domains shown)
VH: B3 VH
VL: B3 VL
B9: DVD522 VEGF arm (antibody, V domains shown)
VH: B3 VH
VL: B3 VL
B10: DVD485 VEGF arm (antibody, V domains shown)
VH: B3 VH
VL: B3 VL
B11: DVD498 VEGF arm (antibody, V domains shown)
VH: B3 VH
VL: B3 VL
B12: DVD504 VEGF arm (antibody, V domains shown)
VH: B3 VH
VL: B3 VL
B13: DVD510 VEGF arm (antibody, V domains shown)
VH: B3 VH
VL: B3 VL
B14: DVD497 VEGF arm (antibody, V domains shown)
VH: B3 VH
VL: B3 VL
B15: DVD473 VEGF arm (antibody, V domains shown)
VH: B3 VH
VL: B3 VL
B16: DVD534 VEGF arm (antibody, V domains shown)
VH: B3 VH
VL: B3 VL
B17: DVD458 VEGF arm (antibody, V domains shown)
VH: B3 VH
VL: B3 VL
B18: DVD445 VEGF arm (antibody, V domains shown)
VH: B3 VH
VL: B3 VL
B19: DVD446 VEGF arm (antibody, V domains shown)
VH: B3 VH
VL: B3 VL
B20: DVD479 VEGF arm (antibody, V domains shown)
VH: B3 VH
VL: B3 VL
B21: DVD492 VEGF arm (antibody, V domains shown)
VH: B3 VH
VL: B3 VL
B22: DVD464 VEGF arm (antibody, V domains shown)
VH: B3 VH
VL: B3 VL
B23: DVD516 VEGF arm (antibody, V domains shown)
VH: B3 VH
VL: B3 VL
B24: DVD503 VEGF arm (antibody, V domains shown)
VH: B3 VH
VL: B3 VL
B25: DVD451 VEGF arm (antibody, V domains shown)
VH: B3 VH
VL: B3 VL
B26: DVD474 VEGF arm (antibody, V domains shown)
VH: B3 VH
VL: B3 VL
B27: DVD452 VEGF arm (antibody, V domains shown)
VH: B3 VH
VL: B3 VL
B28: DVD468 VEGF arm (antibody, V domains shown)
VH: B3 VH
VL: B3 VL
B29: DVD521 VEGF arm (antibody, V domains shown)
VH: B3 VH
VL: B3 VL
B30: DVD533 VEGF arm (antibody, V domains shown)
VH: B3 VH
VL: B3 VL
B31: DVD480 VEGF arm (antibody, V domains shown)
VH: B3 VH
VL: B3 VL
B32: DVD509 VEGF arm (antibody, V domains shown)
VH: B3 VH
VL: B3 VL

The binders below were run against T2, HGF (human, UniProt P14210) (assay: SPR).
T2 sequence (P14210 32-728): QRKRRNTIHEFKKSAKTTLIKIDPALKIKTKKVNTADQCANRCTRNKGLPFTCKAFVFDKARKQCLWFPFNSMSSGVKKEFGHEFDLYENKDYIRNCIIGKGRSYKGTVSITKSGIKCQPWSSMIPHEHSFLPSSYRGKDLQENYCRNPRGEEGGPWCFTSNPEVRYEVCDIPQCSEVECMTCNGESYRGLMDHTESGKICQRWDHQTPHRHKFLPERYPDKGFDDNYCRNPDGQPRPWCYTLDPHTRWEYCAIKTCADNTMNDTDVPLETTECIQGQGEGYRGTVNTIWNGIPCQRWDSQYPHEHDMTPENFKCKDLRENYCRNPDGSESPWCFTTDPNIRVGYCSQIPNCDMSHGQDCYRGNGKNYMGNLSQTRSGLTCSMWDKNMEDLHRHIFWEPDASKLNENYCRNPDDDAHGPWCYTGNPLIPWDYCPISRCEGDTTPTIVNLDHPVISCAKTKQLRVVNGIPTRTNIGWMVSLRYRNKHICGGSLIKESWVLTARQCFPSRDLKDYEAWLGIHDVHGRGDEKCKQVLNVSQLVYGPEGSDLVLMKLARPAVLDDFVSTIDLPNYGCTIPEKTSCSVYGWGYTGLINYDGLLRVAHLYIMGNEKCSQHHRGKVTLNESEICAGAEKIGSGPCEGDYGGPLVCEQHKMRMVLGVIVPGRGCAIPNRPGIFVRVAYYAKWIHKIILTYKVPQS

| Kd [nM] | Binder |
| --- | --- |
| 0.0159 | B1 |
| < 0.0236 | B2 |

Target: T1, VEGF
Assay: ELISA

| EC50 [nM] | Binder |
| --- | --- |
| 1250 | B3 |
| 3020 | B4 |
| 27.7 | B5 |
| 2380 | B6 |
| 1810 | B7 |
| 28 | B8 |
| 23.5 | B9 |
| 121 | B10 |
| 30.6 | B11 |
| 16.7 | B12 |
| 23.9 | B13 |
| 858 | B14 |
| 388 | B15 |
| 23.6 | B16 |
| 21.5 | B17 |
| 14500 | B18 |
| 14.4 | B19 |
| 456 | B20 |
| 8.42 | B21 |
| 19.3 | B22 |
| 24.6 | B23 |
| 430 | B24 |
| 2400 | B25 |
| 17.9 | B26 |
| 17.8 | B27 |
| 25.6 | B28 |
| 655 | B29 |
| 1260 | B30 |
| 23 | B31 |
| 121 | B32 |

These binders were tested against T2, HGF (assay: ELISA).

| EC50 [nM] | Binder |
| --- | --- |
| 0.33 | B1 |
| 0.5 | B2 |
